Results as given in publication PMC8163871, “Structures of the human LONP1 protease reveal regulatory steps involved in protease activation” (Nature Communications, 2021).
Where a chain is given by its changes, count along the chain named. In names and notes the source's numbering stands.

Legend:
[1] = biological target: the molecule itself; assay: cryo-EM structure; wild-type LONP1 2.5 mg/ml in 50 mM Tris pH 8, 75 mM KCl, 10 mM MgCl2, 1 mM TCEP, 1 mM ATPγS; substrate-free (~3.4 Å) and substrate-bound (~3.2 Å) conformations from one sample; LONP1 with itself
[2] = biological target: the molecule itself; assay: cryo-EM structure; Walker B (E591A) LONP1 2.5 mg/ml in 50 mM Tris pH 8, 75 mM KCl, 10 mM MgCl2, 1 mM TCEP, 1 mM ATP; ~4.8 Å; LONP1 with itself
[3] = biological target: the molecule itself; assay: cryo-EM structure; LONP1 2.5 mg/ml in 50 mM Tris pH 8, 75 mM KCl, 10 mM MgCl2, 1 mM TCEP, 1 mM ATPγS with 10-fold molar excess bortezomib; ~3.2 Å; LONP1 with itself

B1: human LONP1 (mature, lacking its N-terminal mitochondrial targeting sequence), wild type (enzyme, UniProt P36776 115-959, looked up)
chain: MTIPDVFPHLPLIAITRNPVFPRFIKIIEVKNKKLVELLRRKVRLAQPYVGVFLKRDDSNESDVVESLDEIYHTGTFAQIHEMQDLGDKLRMIVMGHRRVHISRQLEVEPEEPEAENKHKPRRKSKRGKKEAEDELSARHPAELAMEPTPELPAEVLMVEVENVVHEDFQVTEEVKALTAEIVKTIRDIIALNPLYRESVLQMMQAGQRVVDNPIYLSDMGAALTGAESHELQDVLEETNIPKRLYKALSLLKKEFELSKLQQRLGREVEEKIKQTHRKYLLQEQLKIIKKELGLEKDDKDAIEEKFRERLKELVVPKHVMDVVDEELSKLGLLDNHSSEFNVTRNYLDWLTSIPWGKYSNENLDLARAQAVLEEDHYGMEDVKKRILEFIAVSQLRGSTQGKILCFYGPPGVGKTSIARSIARALNREYFRFSVGGMTDVAEIKGHRRTYVGAMPGKIIQCLKKTKTENPLILIDEVDKIGRGYQGDPSSALLELLDPEQNANFLDHYLDVPVDLSKVLFICTANVTDTIPEPLRDRMEMINVSGYVAQEKLAIAERYLVPQARALCGLDESKAKLSSDVLTLLIKQYCRESGVRNLQKQVEKVLRKSAYKIVSGEAESVEVTPENLQDFVGKPVFTVERMYDVTPPGVVMGLAWTAMGGSTLFVETSLRRPQDKDAKGDKDGSLEVTGQLGEVMKESARIAYTFARAFLMQHAPANDYLVTSHIHLHVPEGATPKDGPSAGCTIVTALLSLAMGRPVRQNLAMTGEVSLTGKILPVGGIKEKTIAAKRAGVTCIVLPAENKKDFYDLAAFITEGLEVHFVEHYREIFDIAFPDEQAEALAVER
notes: human LONP1, mature mitochondrial-matrix form with methionine 115 as its first residue; residues ~420-947 resolved in the cryo-EM maps; pET20b-His6-LONP1; no removal of the His6 tag is described; Incubated with ATPγS for cryo-EM; also called His6-LONP1; WT LONP1; source: E. coli Rosetta 2(DE3)pLysS, purified (TALON cobalt resin, Superose 6 size exclusion)
- stoichiometry N [1]: 6

B2: Walker B LONP1 mutant (E591A) (enzyme, human, UniProt P36776 115-959, looked up)
chain: B1 chain with E477A
notes: human LONP1, mature form with methionine 115 as its first residue, with the Walker B mutation E591 to A591; Made by QuikChange from pET20b-His6-LONP1, expressed and purified as the wild type; Structure determined with ATP; also called WalkerB mutant LONP1; source: E. coli Rosetta 2(DE3)pLysS, purified (TALON cobalt resin, Superose 6 size exclusion)
- binding result [2]: binds

B3: LONP1^Bz: human LONP1 with bortezomib covalently attached to the catalytic serine (enzyme, UniProt P36776 115-959, looked up)
chain: B1 chain
modifications: bortezomib covalently attached to S855
notes: human LONP1, mature form with methionine 115 as its first residue; with ATPγS
- stoichiometry N [3]: 6
